Experimental data as given in article PMC6769490, “Protein Engineering of Multi-Modular Transcription Factor Alcohol Dehydrogenase Repressor 1 (Adr1p), a Tool for Dissecting In Vitro Transcription Activation” (Biomolecules, 2019).
Several values for one entry are separate records, joined by “and”; a condition that tells them apart may be missing. Equal values may be shown once.

What was measured:
miniAdr1-BL (untagged) [1] = target: T1, miniAdr1-BL (untagged) (Saccharomyces cerevisiae, UniProt P07248 75-471, del1-74;del179-418;del472-1323); test: EMSA; 5 mM CHAPS; hairpin not competent for binding; 40 mM Na phosphate pH 7.5, 40 mM NaCl, 10% glycerol, 18 uM Zn acetate (+/- 5 mM CHAPS, DTT, spermine), 30 min 4 C; HPLC-purified: 20 mM phosphate pH 7.0, 40 mM; settings: protein: recombinant; tags: none; chain copies: 2; label: 33P; hairpin of a single strand, 5' overhang 4 nt
T1 sequence: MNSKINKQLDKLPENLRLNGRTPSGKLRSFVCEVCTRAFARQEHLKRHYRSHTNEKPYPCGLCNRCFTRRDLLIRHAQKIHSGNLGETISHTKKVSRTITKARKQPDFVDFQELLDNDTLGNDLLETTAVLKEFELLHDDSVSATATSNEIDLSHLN

miniAdr1-BL (untagged) [2] = target: T1, miniAdr1-BL (untagged); test: EMSA; no CHAPS, Zn acetate; mostly dimer; 40 mM Na phosphate pH 7.5, 40 mM NaCl, 10% glycerol, 18 uM Zn acetate (+/- 5 mM CHAPS, DTT, spermine), 30 min 4 C; HPLC-purified: 20 mM phosphate pH 7.0, 40 mM; settings: protein: recombinant; tags: none; chain copies: 2; label: 33P or none (ethidium bromide); 5' overhang 1 nt at both ends
Adr1-DBD (untagged) [3] = target: T2, Adr1-DBD (untagged) (Saccharomyces cerevisiae, UniProt P07248 75-178); test: EMSA; no CHAPS, Zn acetate; mostly monomer; 40 mM Na phosphate pH 7.5, 40 mM NaCl, 10% glycerol, 18 uM Zn acetate (+/- 5 mM CHAPS, DTT, spermine), 30 min 4 C; HPLC-purified: 20 mM phosphate pH 7.0, 40 mM; settings: protein: recombinant; tags: none; label: 33P or none (ethidium bromide); 5' overhang 1 nt at both ends
T2 sequence: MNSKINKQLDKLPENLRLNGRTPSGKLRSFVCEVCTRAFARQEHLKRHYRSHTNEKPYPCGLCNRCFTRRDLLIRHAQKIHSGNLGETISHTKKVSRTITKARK

His-Adr1-165 = target: T3, His-Adr1-165 (Saccharomyces cerevisiae, UniProt P07248 1-165); test: EMSA; CM + heparin purified; monomer and dimer; 40 mM Na phosphate pH 7.5, 40 mM NaCl, 10% glycerol, 18 uM Zn acetate (+/- 5 mM CHAPS, DTT, spermine), 30 min 4 C; HPLC-purified: 20 mM phosphate pH 7.0, 40 mM; settings: protein: recombinant; tags: His-tag; label: 33P or none (ethidium bromide); 5' overhang 1 nt at both ends
T3 sequence: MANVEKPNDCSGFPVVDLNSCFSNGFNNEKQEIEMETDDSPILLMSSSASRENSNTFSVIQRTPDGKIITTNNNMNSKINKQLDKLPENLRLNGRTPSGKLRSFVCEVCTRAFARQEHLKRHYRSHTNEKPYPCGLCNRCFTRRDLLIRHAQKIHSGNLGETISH

Adr1-DBD (untagged) [4] = target: T2, Adr1-DBD (untagged); test: EMSA; 5 mM CHAPS, Zn acetate; two smeared bands; 40 mM Na phosphate pH 7.5, 40 mM NaCl, 10% glycerol, 18 uM Zn acetate (+/- 5 mM CHAPS, DTT, spermine), 30 min 4 C; HPLC-purified: 20 mM phosphate pH 7.0, 40 mM; settings: protein: recombinant; tags: none; label: 33P (5' kinase label); self-complementary duplex, 5' overhang 4 nt at both ends
miniAdr1-BL (untagged) [5] = target: T1, miniAdr1-BL (untagged); test: EMSA; 5 mM CHAPS, Zn acetate; protein 3.16e-8 to 1e-6 M, DNA 1e-8 M; 40 mM Na phosphate pH 7.5, 40 mM NaCl, 10% glycerol, 18 uM Zn acetate (+/- 5 mM CHAPS, DTT, spermine), 30 min 4 C; HPLC-purified: 20 mM phosphate pH 7.0, 40 mM; settings: protein: recombinant; tags: none; chain copies: 2; label: 33P (5' kinase label); self-complementary duplex, 5' overhang 4 nt at both ends
[6] = target: the molecule itself; test: native gel or EMSA; N-PAGE/EMSA with half site dsDNA (one binding site), no CHAPS; 20, 40 and 80 pmol protein; stoichiometric mixture of both proteins (40 pmol) in lane 7
[7] = target: the molecule itself; test: native gel or EMSA; DNA binding assay with half site dsDNA; partially purified His-tagged Adr1-165 from bacteria (Supplementary Figure S1d, lanes 12-14)
[8] = target: the molecule itself; test: SEC; miniAdr1-BL alone, freshly purified and concentrated, no DNA; Superdex G75 on HPLC, 50 mM Na/K phosphate pH 6.9, 150 mM NaCl, 4 mM TCEP, 5 mM CHAPS, 5% glycerol, 3.5 mM spermine, 0.018 mM Zn acetate; 0.4 mL/min; masses from a calibration curve

CCGGCCTCTCCAACTTATAAGTTGGAGAGG (structured_DNA) [Palindromic UAS1 hairpin]
binding result (miniAdr1-BL (untagged) [1]): no binding

B1: Half site UAS1 (dsDNA)
DNA 1: TCCGGGCATCTCCAACTTA
DNA 2: CTAAGTTGGAGATGCCCGG
binding result (miniAdr1-BL (untagged) [2]): binds | binding result (Adr1-DBD (untagged) [3]): binds | binding result (His-Adr1-165): binds

B2: Palindromic UAS1 (dsDNA)
DNA 1: CCGGCCTCTCCAACTTATAAGTTGGAGAGG
DNA 2: B2 DNA 1
binding result (Adr1-DBD (untagged) [4]): binds | binding result (miniAdr1-BL (untagged) [5]): binds

B3: Adr1-DBD (residues 75-178), untagged (domain or fragment, Saccharomyces cerevisiae, UniProt P07248 75-178, looked up)
chain: T2 sequence
notes: Alcohol dehydrogenase repressor 1 (Adr1p), Saccharomyces cerevisiae, UniProt P07248; Printed mass 12.4 kDa; also called construct (5); source: Komagataella pastoris X-33, purified (CM sepharose, SEC)
stoichiometry N [6]: 2

B4: His-tagged Adr1-165 (residues 1-165) (domain or fragment, Saccharomyces cerevisiae, UniProt P07248 1-165, looked up)
chain: T3 sequence
notes: Alcohol dehydrogenase repressor 1 (Adr1p), Saccharomyces cerevisiae, UniProt P07248; residues 1-165, comprising only TAD I; also called HisAdr1-165; His-Adr1-165; source: E. coli BL21(DE3), pET28b, partially purified
stoichiometry N [7]: 2

B5: miniAdr1-BL (Adr1_Δ179-418), untagged (domain or fragment, Saccharomyces cerevisiae, UniProt P07248 75-471, looked up)
chain: T1 sequence
notes: Alcohol dehydrogenase repressor 1 (Adr1p), Saccharomyces cerevisiae, UniProt P07248; residues 75-178 (PAR-TAD I with the basic linker 158-178) directly linked to residues 419-471 (core of TAD III); TAD I and TAD III fragments were ligated through inserted BamHI sites; Printed mass 18 kDa; also called construct (4); basic linker construct; source: Komagataella pastoris X-33, cytoplasm, purified …
stoichiometry N [6]: 2 | stoichiometry N [8]: ~2 and ~3
